Our source for the MFI values is patent US20180243408A1.

In assay [1] the target is component of tight junctions expressed by L-cells. Nature of the assay: flow cytometry on L cells, 20 µg Arah2-pσ1, detected with anti-pσ1 rabbit serum and FITC-labeled anti-rabbit. In general terms: Flow cytometry measures light scatter and fluorescence of single cells or particles in a stream.
The target in assay [2] is Arah2-pσ1 fusion protein. Nature of the assay: flow cytometry; control serum in place of anti-pσ1 serum on HeLa cells stained with Arah2-pσ1, FITC-labeled anti-rabbit.
The target of assay [3] is Arah2-pσ1 fusion protein. Nature of the assay: flow cytometry; control serum in place of anti-pσ1 serum on L cells stained with Arah2-pσ1, FITC-labeled anti-rabbit.

In assay [1], Arah2-pσ1 fusion protein displayed an MFI of 1880 MFI.

Take normal rabbit serum: the MFI with Arah2-pσ1 fusion protein [2] stood at 26 MFI; with Arah2-pσ1 fusion protein [3], 32 MFI.
